Here are results for two sequences from patent US20130012690.

The target in this data set is Tfl-bZip (GCN4 residues 226-281, leucine zipper leucines replaced with 5,5,5-trifluoroleucine) Leu to 5,5,5-trifluoroleucine in the GCN4-p1 dimerization domain (four d-position leucines) (UniProt P03069). The data set can be described thus: EMSA.
Chain of Tfl-bZip (GCN4 residues 226-281, leucine zipper leucines replaced with 5,5,5-trifluoroleucine) Leu to 5,5,5-trifluoroleucine in the GCN4-p1 dimerization domain (four d-position leucines) (P03069 whole entry, the tested form may be a part): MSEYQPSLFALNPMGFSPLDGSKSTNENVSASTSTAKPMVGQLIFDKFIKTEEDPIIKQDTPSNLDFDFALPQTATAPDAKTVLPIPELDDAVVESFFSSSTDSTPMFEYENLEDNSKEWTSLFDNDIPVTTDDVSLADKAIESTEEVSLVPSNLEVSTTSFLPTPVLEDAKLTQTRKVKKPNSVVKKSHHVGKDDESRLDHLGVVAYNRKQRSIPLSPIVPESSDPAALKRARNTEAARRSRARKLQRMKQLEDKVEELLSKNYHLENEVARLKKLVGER

As usually defined, the Kd is the concentration at which binding is half-saturated. Regarding “TGGAGATGACGTCATCTCCT (double strand) [CREB site oligonucleotide]”, where the note is “densitometry, CD at 0 C also shows coil-to-helix transition on DNA binding”, the dissociation constant Kd came out at 5.4 nM.
With “GTGGAGATGACTCATCTCCGG (double strand) [AP-1 site oligonucleotide]”, where the note is “densitometry of mobility shift assay”, the Kd is 12.5 nM.
